Measurements: publication PMC10702828
Each block holds one substance with its values, some of them ahead of it.

Columns and labels:
[1] = target: polynucleotide kinase Grc3 (Chaetomium thermophilum (endogenous in mycelium)); test: cryo-EM structure; isolated rixosome from the PTF-Las1 eluate; Rix1 complex and Las1-Grc3 processed individually, whole rixosome at low resolution
[2] = target: Ipi3 (Chaetomium thermophilum (endogenous in mycelium)); test: cryo-EM structure; pre-60S particles from the Flag eluates of PT-Rsa4 E117D with Nop7-Flag, Rix1-Flag or Flag-Las1
[3] = target: Ipi3 (Chaetomium thermophilum (endogenous in mycelium)); test: cryo-EM structure; isolated rixosome from the PTF-Las1 eluate; Rix1 complex and Las1-Grc3 processed individually, whole rixosome at low resolution
[4] = target: wild‐type ct PTF‐Las1 (Chaetomium thermophilum); test: as above
[5] = target: Rix1 (Chaetomium thermophilum (endogenous in mycelium)); test: cryo-EM structure; pre-60S particles from the Flag eluates of PT-Rsa4 E117D with Nop7-Flag, Rix1-Flag or Flag-Las1
[6] = target: Rix1 (Chaetomium thermophilum (endogenous in mycelium)); test: cryo-EM structure; isolated rixosome from the PTF-Las1 eluate; Rix1 complex and Las1-Grc3 processed individually, whole rixosome at low resolution

stoichiometry N [1]: 2 copies
Substance: polynucleotide kinase Grc3 (enzyme)

stoichiometry N [2]: 2 copies | stoichiometry N [3]: 2 copies
Substance: Ipi3 (natural protein)

stoichiometry N [4]: 2 copies
Substance: wild‐type ct PTF‐Las1 (enzyme)

stoichiometry N [5]: 2 copies | stoichiometry N [6]: 2 copies
Substance: Rix1 (natural protein)
